The target in experiment [1] is T-cell surface glycoprotein CD4 [Homo sapiens] (Homo sapiens) (UniProt P01730). Briefly: cell-based or functional assay.
The target in experiment [2] is human T-cell receptor beta chain with variable region Vbeta 7.1 (H. sapiens rearranged TCR Vbeta 7.1) (H. sapiens). As to the kind of experiment: cell-based or functional assay.
Sequence of human T-cell receptor beta chain with variable region Vbeta 7.1 (H. sapiens rearranged TCR Vbeta 7.1) (H. sapiens) (A0A577 whole entry, form in doubt): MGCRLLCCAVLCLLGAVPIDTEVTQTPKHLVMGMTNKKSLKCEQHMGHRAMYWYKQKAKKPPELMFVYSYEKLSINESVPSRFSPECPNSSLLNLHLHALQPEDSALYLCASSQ

In experiment [1], “CART20 anti-CD20 chimeric antigen receptor (scFv of anti-CD20 monoclonal antibody Leu16 in the third-generation CAR backbone), expressed on transduced human T cells” had a CD4-positive cells remaining in the control culture (flow cytometry) of 45%. The same substance came in with a TCR Vβ7.1-positive cells remaining in the control culture (flow cytometry) in experiment [2] of 1.2%.

Values taken from patent US20240207312A1.
